Laboratory results reported in US20250304658A1 (ICAHN SCHOOL OF MEDICINE AT MOUNT SINAI, published 2025).
Read-outs that look alike come from different tables or passages of the source.

B1: 6E1 (antibody, V domains shown)
VH: EVQLLESGGGLVQPGGSLRLSCAASGFTFSSFAMSWVRQAPGKGLEWVSGISGSGGSTYYADSVKGRFTISRDNSKNTLYLQMNSLRAEDTAIYYCAKDKRNWNYGIDSFDFWGQGTMVTVSS
VL: DIQMTQSPSSLSASVGGRVTITCRTSQSISGYLNWYQQKAGKAPKLLIYATSNLQSGVPSRFTGSGSGTDFTLTISSLQPEDFAAYYCHQSHSPPFTFGPGTKVAFK
B2: 2B9 (antibody, V domains shown)
VH: EVQLLESGGGLAQPGKSLRLSCAASGFTFSGFAMSWVRQAPGKGLEWVSGISGSGDITYYADSVKGRFTISRDNSKSTLYLQMNSLGAEDTAVYYCAKDPYNWNHGVYGMDVWGQGTTVTVSS
VL: DIQMTQSPSSLSASVGDRVTITCRASQSISSYLNWYQQKPGKAPKFLIYGASSLQSGVPSRFSGSGSGTDFTLTISSLQPEDFAAYYCQQSFNAPLTFGGGTKVEIK
B3: 2A10 (antibody, V domains shown)
VH: EVQLVQSGAEVKKPGESLKISCKGSGYSFTYYWIGWVRQMPGKGLEWMGIIYPGDSDTRYSPSFQGQVTISADKSISTAYLQWSSLKASDTAMYYCTTHARNWNNVAYWGQGTLVTVSS
VL: DIQMTQSPSSLSASVGDRLTITCRASQNINTFLNWYQQNPGKAPKVLIYAASSLESGVPSRFSGSGSGTDFTLTISSLQPEDFATYYCQQSSSTPWTFGQGTKVEIK
B4: 2F11 (antibody, V domains shown)
VH: EVQLVQSGAEVKKPGESLKISCKGSGYSFTNYWIGWVRQMPGKGLEWMGIIYPGDSDTRYSPSFQGQVTLSADKSISTAYLQWNSLKASDTAMYYCATHARSWNYVAYWGQGTLVTVAS
VL: DIQMTQSPSSLSASVGDRVTITCRASQSVNNFLNWYQQKPGTAPKLLIYAASSLQGGVPSRFSGSGSGTDFTLTISSLQPEDFATYYCQQSNTTPWTFGQGTKVEIK

Tests used:
Experiment in all cases: cell-based or functional assay
[1] = biological target: BK virus VP1 protein, genotype III (BK virus)
[2] = biological target: BK virus VP1 protein, genotype IV (BK virus)
[3] = biological target: BK virus VP1 protein, genotype II (BK virus)
[4] = biological target: T1, BK virus VP1 protein, genotype I (BK virus, UniProt P03088 1-362)
T1 sequence: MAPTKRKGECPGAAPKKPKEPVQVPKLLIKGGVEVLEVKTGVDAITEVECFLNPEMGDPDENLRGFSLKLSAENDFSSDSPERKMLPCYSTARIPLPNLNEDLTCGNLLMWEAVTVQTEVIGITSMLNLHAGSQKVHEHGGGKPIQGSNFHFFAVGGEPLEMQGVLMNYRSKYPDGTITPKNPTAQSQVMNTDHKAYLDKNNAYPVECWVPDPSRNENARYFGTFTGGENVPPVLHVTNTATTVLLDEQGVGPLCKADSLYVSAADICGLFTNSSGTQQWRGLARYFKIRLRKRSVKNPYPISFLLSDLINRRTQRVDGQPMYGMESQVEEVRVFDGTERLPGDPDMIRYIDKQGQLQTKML

[5] = biological target: BK virus VP1 protein, genotype III (BK virus); remark: listed apart in the source
[6] = biological target: BK virus VP1 protein, genotype IV (BK virus); remark: listed apart in the source
[7] = biological target: BK virus VP1 protein, genotype II (BK virus); remark: listed apart in the source
[8] = biological target: T1, BK virus VP1 protein, genotype I; remark: listed apart in the source
[9] = biological target: BK virus VP1 protein, genotype III (BK virus); remark: listed apart in the source
[10] = biological target: BK virus VP1 protein, genotype IV (BK virus); remark: listed apart in the source
[11] = biological target: BK virus VP1 protein, genotype II (BK virus); remark: listed apart in the source
[12] = biological target: T1, BK virus VP1 protein, genotype I; remark: listed apart in the source

Row | Binder | EC50, pseudovirus neutralization (mAb mixed with irrelevant isotype matched mAb M2) [1] [pM] | EC50, pseudovirus neutralization (mAb mixed with irrelevant isotype matched mAb M2) [2] [pM] | EC50, pseudovirus neutralization (mAb mixed with irrelevant isotype matched mAb M2) [3] [pM] | EC50, pseudovirus neutralization (mAb mixed with irrelevant isotype matched mAb M2) [4] [pM] | EC50, pseudovirus neutralization [5] [pM] | EC50, pseudovirus neutralization [6] [pM] | EC50, pseudovirus neutralization [7] [pM] | EC50, pseudovirus neutralization [8] [pM] | EC50, pseudovirus neutralization (mAb mixed with irrelevant isotype matched mAb M2) [9] [pM] | EC50, pseudovirus neutralization (mAb mixed with irrelevant isotype matched mAb M2) [10] [pM] | EC50, pseudovirus neutralization (mAb mixed with irrelevant isotype matched mAb M2) [11] [pM] | EC50, pseudovirus neutralization (mAb mixed with irrelevant isotype matched mAb M2) [12] [pM] | EC50, pseudovirus neutralization [1] [pM] | EC50, pseudovirus neutralization [2] [pM] | EC50, pseudovirus neutralization [3] [pM]
1 | B1 | > 2000 | 21 | > 2000 | 0.78 | > 6670 | 9.5 | > 6670 | 2.95 | > 6670 | 49.6 | > 6670 | 0.67 | – | – | –
2 | B2 | – | – | – | – | 80.8 | 148 | 154 | – | 5.4 | 10.8 | 44 | – | 6.8 | 11.4 | 61.3
3 | B3 | 0.654 | 0.72 | 11.2 | > 2000 | 2.4 | 1.5 | 9.4 | > 6670 | 6.4 | 5.9 | 55.7 | > 6670 | – | – | –
4 | B4 | 6.1 | 1.85 | 148 | > 2000 | 10.5 | 6.1 | 83.8 | > 6670 | – | – | – | – | – | – | –
